This data set has as its target T1, PfMLC-B C-terminal domain (MLC-B CTD), residues 497-652 (Plasmodium falciparum, UniProt Q8III1 497-652).
T1 construct: Myosin light chain B (MLC-B), Plasmodium falciparum 3D7, PlasmoDB PF3D7_1118700; C-terminal 156 amino acids, residues 497-652 (3' 471 bp of mlc-b cDNA, primers 27 and 28); Cloned into BamHI/XhoI of pGEX6P1; a few vector residues may remain after PreScission cleavage; also called PfMLC-B CTD; calmodulin-like C-terminal domain; source: E. coli BL21 Gold, purified (glutathione-Sepharose, PreScission …)
T1 sequence: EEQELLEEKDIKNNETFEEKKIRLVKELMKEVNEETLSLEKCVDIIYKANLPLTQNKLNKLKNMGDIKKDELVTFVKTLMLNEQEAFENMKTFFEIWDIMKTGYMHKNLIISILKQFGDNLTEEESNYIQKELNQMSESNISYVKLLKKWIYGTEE
The data set can be described thus: thermal unfolding monitored by CD at 222 nm; MLC-B CTD alone or with 1.5- or 3-fold molar excess of peptide; heating 1 °C/min, 20-90 °C. The settings on record: both partners purified.

Consider one protein from PMC4424349, “The Plasmodium Class XIV Myosin, MyoB, Has a Distinct Subcellular Location in Invasive and Motile Stages of the Malaria Parasite and an Unusual Light Chain*” (The Journal of Biological Chemistry, 2015).

B1: Myosin B peptide Asn780 to His800 (peptide)
peptide: Ac-NIKNLQLAQAYFRKYKYIKEH-NH2
notes: Myosin B (MyoB), Plasmodium falciparum, residues 780-800; also called Asn780 to His800 peptide; peptide from the extreme C terminus of MyoB; source: synthetic peptide
Turning to B1, the “Tm of MLC-B CTD with a 1.5-fold molar excess of the peptide (59 °C without peptide)” value stood at 67 °C and the “Tm of MLC-B CTD with a 3-fold molar excess of the peptide (59 °C without peptide)” value stood at 70 °C.
